Experimental data as given in publication PMC10470591.

Key:
[1] = target: Flag-tagged SisArnB (vWA domain protein) expressed in S. islandicus (Saccharolobus islandicus REY15A); test: co-IP; in vivo pull-down: Flag-ArnB or Flag-ArnE precipitated with anti-Flag magnetic beads from sonicated S. islandicus cell extract in buffer A (50 mM Tris-HCl pH 7.5, 150 mM NaCl, 5% glycerol); SisArnA detected by Western blot with anti-SisArnA; cells untreated or treated with 3 µM NQO for 6 h
[2] = target: Flag-tagged SisArnE (vWA domain protein SisvWA2) expressed in S. islandicus (Saccharolobus islandicus REY15A); test: as above

- amount of SisArnA pulled down after NQO treatment, percent of the untreated sample [1]: 40%
- fold of the SisArnA-ArnE interaction, normal growth conditions [1]: 9 fold
- amount of SisArnA pulled down after NQO treatment, fold of the untreated sample [2]: 3 fold
Substance: SisArnA, FHA domain-containing protein from Saccharolobus islandicus REY15A (endogenous) (natural protein)
